Laboratory results taken from the nanobody polyreactivity screen of Harvey et al. (2022).

Assay: yeast display, Sf9 membrane polyspecificity reagent, FACS + sequencing; frameworks hold sequencing errors
Outline: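 Genes from sorted yeast were amplified by colony PCR, read by MiSeq 2 × 250 sequencing and filtered on CDR length. These cells carried a synthetic nanobody library in Saccharomyces cerevisiae BJ5465 and were sorted by FACS into low and high (top ~1%) gates on anti-HA and streptavidin fluorescence. Polyreactivity is labelled according to the gate of origin.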

Sequence	polyreactivity (PSR sort gate)
QVQLVESGGGLVQAGGSLRLSCAASGFTLFANVMGWYRQAPGKERELVAAISWRSGNTYYADSVKGRFTISRDNAKNTVYLQMNSLKPEDTAVYYCAADTTGDQHSWGTSGIIEGDYWGQGTQVTVSS	low polyreactivity
QVQLVESGGGLVQAGGSLRLSCAASGFTFYNYAMGWFRQATGKERELVAASNSGGSTYYADSVKGRFTSSRDNATNTVYLQMNSLKPEDTAVDYFAARSYYQYRRYYSWGQGTQVTVSS	high polyreactivity
QVHLVESGGGLVQAGGSLRLSCAASGSTIDYKAMGWYRQAPGKERELVAAITTIGGSTYYADSVKGRFTISRDNAKNTVYLQMNSLKPEDTAVYYCAADLRVWGRSGYDYWGQGTQVTVSS	low polyreactivity
QVQLVESGGGLVQAGGSLRLSCAASGLTFSRNGMGWYRQAAGKERELVAAISTSGDSTDYADSVKGRFTISRDYAKNTVYLQMNSLKPEDTAVYYCNRDFSLVVHYNFDYWGQGTQVTVSS	low polyreactivity
QVQLVESGGGLVQAGGRLRLSCAASGSTLYPNAMGWSRQAPGKDRELVAAISSGSSTYADSVKGRFTISRDNAKNTVYLQMNSLKPADTAVYYCNADAPIHYDYWGQGTQVTVSS	low polyreactivity
QVQLVESGAGLVQAGGSLRISCAASGRTFFPNAMGWYRQAPGKERELFAAISSGGGGTYYADSVKGRFTISRDNAKNTVYLQMNSLKPEDTAVYYCAARNSKVEEDGNYWGQGTQVTVSS	low polyreactivity
QVHLVESGGGLVQAGRSLRLSCAASGIIFQLYAMGWYRQPPGKERELVATISSVGSTNYADSVKGRFTISRDNAKNTVYLEMTSLNPEDTAVYYCNAARYGWGYFYGLNYWGQGTQVTVSS	low polyreactivity
QDQLVESGGGLVQAGGSLRLSCAASGLIVGDYAMGWYRQAPGKERELVAAITGSVTRTYYADSVKGRFTISRDNAKNTVYLQMNSLKPEDTAVYYCATRVHYIGFYDYDYWGQGTQVTVSS	low polyreactivity
QVQLVESGGGLVQAGGSLRLSCAASGLTFNPNAMGWYRQAPGKERDLVADITYRGGSTYYADSEKGRFTISRDNAKNTDYLQMYSLKPEDTAVYYCAAQYIGWHLYWYDYWGQGTQVTVSS	low polyreactivity
QVEHVESGGGLVQAGGILRLSCAASGSTFYGYAMGWYRQARGKERELVAAITSSGGSTYYADSVKGRFTISRDNAKNSVYLQMNSLKPEDTADYYCNAKRAPWGTLYNYWGQGSQVTVSS	high polyreactivity
QVQLVESGGGLVQAGGSLRLSCAASGSIFRINGMGCYRQAPGKERELVADITGGGSTYYADSVKGRFTISRDNAKNTVYLHMNSLKPEDTAVYYCAKDYYRSYGREDYWGQGTQVTVSS	low polyreactivity
QVQLVESGGGLVQAGGSLRLSCAASGITFTVYAMGWYRQATRKERELVAAITSTGSTNYADSVKGLFTISRDNAKNTVYLQMNSLKPEDTAVYYCAADRQITVYAFDYWGQGTQVTVSS	low polyreactivity
QVQLVESGGGLVQAGGSLRLSCAASGYTFTVYPMGGYRPAPGKERELVAAIRDGSSTNYADSVKGRFTISRDNAKNTVYLQMISLKPEDTAVYYCNAYSQSWNFYGDGDYWGQGTQVTVSS	low polyreactivity
QVHLVESGGGLVQAGGSLRLSCAASGRTFVPYVMGWYRQAPGKERELVATINWSGGSTYYADSVKGLFTISRDNAKNTVYLQMNSLKPEDTAVYYCAARYYSDWFYYLFRYDYLGQGTQVTVSS	low polyreactivity
QVQLVESGGGLVQAGGSLRLSCAASGRILIRKAMGWYRQAPGKERELVAAINRGGGSTYYADSVKGRITISRDNAKNTVYLQMISLNPDDTAVYYCAADRKAGYSRVDGDYWGQGTQVTVSS	low polyreactivity
QVQLVESGGGLVQAGGSLRLSCAASGSIFRLNTMGWYRQAPGKEMEFVAAISKGGTSTYYADSVKARFTISRDNAKNTVYLQMNSLKPEDTAVYYCAADYYSLYEATTDFDYWGQGTQVTVSS	high polyreactivity
QVQLVDSGGGLVQAGGSLRLSCAASGINFASYAMGWYRQAPGKEMEIVAAISRSGSSTYYADSVKGRFTISRDNAKYTVYLQMNSLKPEDTAVYYCARARSGGSHREYYWGQGTQVTVSS	high polyreactivity
QVQLVESGGGLVQAGGSLRLSCAASGYIFYAYAMGWYRQAPGKERELVAAISSGGGRTYYADSVKGRFTISRDNAKNTVYLQMNSLKPEDTAVYYCAARRRDRGEYYYWGQGTQVTVSS	high polyreactivity
QVQLVESGVGLVQAGGSLRLSCAASGRIFYGYAMGWYRQAPGKEREFVARINVSGTSTFYADSVKGRFTISRDNAKNTVYLQMSSLKPEDTAVYDCAARGLPPNDYCYVHGYIMDYWGQGTQVTVSS	low polyreactivity
QVQLVESAGGLVQAGGSLRLSCAASGSIFPWNAMGWYRQAPGKERELVAAISYSGTRTYYADSVKGRFTISRDNAKNTVYLQMNSLKPVDTAVYYCNARGYTRSYVKYDYWGQGTQVTVSS	high polyreactivity
QVQLVESGGGLDQAGGSLRLSCAASGSTFRQNVKGWYRQAPGKERELVAAISKSGGSTYYADSVKGRFTISRDNAKNTVYLQMNSLKPEDTAVYYCATRQRQRVDNREYYYWGQGTQVTVSS	high polyreactivity
QVQLVESGGGLVQAGGSLRLSCAASGFTFVKNAMGWYRQAPGKERELVAAITGSAGRTYYADSVKGRFTISRDNAKNTVYLQMNSLKPEDTAVYYCAAPRFAAPRRIGYDWGQGTQVTVSS	high polyreactivity

Sequence	polyreactivity (PSR sort gate)
QVHLVESGGGLVQAGGSLRLSCAASGRPFSKYTMGWDRQAPGKERELVAVISRSGTRTYYADSVKGRFTISRDNAKNTVYLQMNSLKPEDTAVYYCAAKDERRSFGMGYWGQGTQVTVSS	high polyreactivity
QVQLVESGGGLVQAGGSLRLSCAASGLISRRNAMGWYRQAPGKERELVAAISTGSSTNYADSVKGRFTLSRDNAKNTVYLQMNSLKPEDSAVYYCAATQYWWSTLGIRDDYWGQGTQVTVSS	low polyreactivity
QVQLVESGGGLVQAGGSLRLSCAASGRIFRPNAMGWYRQAPGKERELVAAITSNGGRTYYADSVKGRFTISRDNAKNTVYLQMNSLKPEDTAVYYCNAAPFRSGYGYWGQGTQVTVSS	high polyreactivity
QVQLVESGGGLVQAGGSLRLSCAASGIIFWWYAMGWYRQAPGKEMELVAAISGTGGSTYYADSVKGRFTISRDNAKNTVYLQMNSLKPEDTAFYYCAARGKSSSYYDYDYWGQGTQVTVSS	low polyreactivity
QVQLVESGGGLVQAGGSLRLSCAASGSTFRTYAMGWYRQAPGKERELVAVISASGGSTYYADSVKGRFTISRDNAKNTVYLQMNSLKPEDTAVYYCAVAYSRGRYYYWGQGTQVTVSS	high polyreactivity
QVQLVESGGGLVQAGGSLRLSCAASGSIFDYYAMGWYRPAPGKERELVAAISDSGGSTYYADSVKGRFTISRDNAKNTVYLQMNSLKPEDTAVYYCNAVPRYQATWQESYDYDYWGQGTQVTVSS	high polyreactivity
QVQLVESGGGLVQAGGSLRLSCAASGYTFYFYAMGWSRQAPGKEREFVAAIRSSGGRTYYADSVKGRFTISRDNAKNTVYLQMNSLKPVDTAVYYCAAAGYYYSVDGAGPRYDYWGQGTQVTVSS	low polyreactivity
QVQLVESGGGLVQAGGSLRLSCAASGRIFTSYAMGWYRQAPGKERELVAAITASGGRTYYADSVKGRFTISRDNAKNTVYLQMNCLKPEDTAVYYCAKLLSFQGDYWGQGTQVTVSS	high polyreactivity
QVQLVESGGGLVQAGGSLRLSCAASGLTFHPYAMGWYRQAPGKERELVAAISSRGTSTYYADSVKGRFTISRDNAKNTVYLQMNSLKPEDTAVYYCAAEVITIGLYRYGYWGQGTQVTVSS	high polyreactivity
QVQLVESGGGLVQAGGSLRLSCAASGRIFRPYAMGWYRQAPGKERELVASISWRGSSTYYADSVKGRFTISRDNAKNTVYLQMNSLKPEDTAVYYCAARRYPTSGYAYWGQGTQVTVSS	high polyreactivity
QVQLEESGGGLVQAGGSLRLSCAASGRTFVYNAMGWYRQAPGKERELVAAITSGGRTYYADSVKGRFTISRDNAKNTVYLQMNSLKPEDTAVYYCAADHRGEYDYWGQGTQVTVSS	low polyreactivity
QVQLVESGGGLVQAGGSLRLSCAASGINLFYYAMGWYIQAPGKETDFVAAISWSGGSTYYADSVKGRFTISRDNAQNTVYLQMNSLKPEDTALYYCAAKWYSYRWTQFDYWGQGTQVTVSS	high polyreactivity
QVQLVESGGGLDQAGGSLRLSCAASGSIFRGYAMGWYRQAPGKERDLVAAINRSGGRTYYADSVKGRFTISRDNAKNTVYLQMNRLKPEDTAVYYCAADYFFYQPSGYDYWGQGTQVTVSS	high polyreactivity
QVQLVESGGGLVQAGGSLRLSCAASGNIFYQYAMGWYRQAPGKEREFVAAISISGTSTYADSVKGRFTISRDNAKNTVDLQLNSLKPEDTEVYWGQGTQVTVSS	low polyreactivity
QVQLVESGGGLDQAGGSLRLSCAASGRIFQYYAMGWYRQAPGKERELVAAITSGGRTTYADSVKGRFTISRDNAKNNVYLQMNSLKPEDTAVYYCNAKTWYSYNYWGQGTQVTVSS	high polyreactivity
QVQLVESGGGLVQAGGSLRLSCAASGFTFYTYVMGWYRQAPGKERELVAAITSGVSTNYADSVKGRFTISRDNAKNTVYLQMNSLKPEDTAVYYCAAGSDFQYGHDYWGQGTQVTVSS	low polyreactivity
QVQLVESGGGLVQAGGSLRLSCAASGSTLNSYVMGWYRQAPGKERELVATIRSGSSTNYADSVKGRFTISRDNAKNTVYLQMNSLKPEDTAVYDCAADAYSLCYDSWGQGTQVTVSS	low polyreactivity
QVQLVESGGGLVQAGGSLRLSCAASGRTFRFYAMGWYRQAPGKERELVAAITSGGSTTYADSVKGRFTISRDNAKNTVYLQMNSLKPEDTAVYYCNADRARAYDYWGQGTQVTVSS	high polyreactivity
QVQLVESGGGLVQAGGSLRLSCAASGRIFLHNAMGWYRQAPGKERELVAAITSGGNTNYADSVKGRFTISRDNAKNTVYLQMNSLKPEDTAVYYCATVGKVHHRLVAMDYWGQGTQVTVSS	low polyreactivity
QVQLLESGGGLVQAGGSLRLTCAASGITFQYYAMGWYRQAPGKERELVAAITSSGVSTYYADSVKGRFTISRDNAKNTVYLQMNSLKPEDTAVYYCNTVVRGWSSSAYDYWGQGTQVTVSS	low polyreactivity
QVQLVESGGGLVQAGGSLRLSCAASGSTFRRNAMGWYRQAPGKERELVAAISRTAGSTYYADSVKGRFTISRDNAKNTVYLQMNSLKPEDTAVYYCNRRYVSTSGELDYWGQGTQVTVSS	high polyreactivity
